Measured values as given in patent publication US20250043302A1, “MUTATED HYDROXYPHENYLPYRUVATE DIOXYGENASE POLYPEPTIDE, AND CODING GENE AND USE THEREOF” (BEIJING DABEINONG BIOTECHNOLOGY CO., LTD., priority 2021, published 2025).

How the values were obtained:
Type in all cases: in vivo
[1] = system: Arabidopsis thaliana T1 plants; experiment: Mesotrione tolerance of transgenic Arabidopsis thaliana T1 plants (spray, bleached leaf area grade, damage score); set-up: Scores: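 damage score 0-100 computed as Σ(N×S)/(T×M)×100 over grades 0-3 with higher meaning more damage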; conditions: Arabidopsis thaliana T1 plants; for Grade 0 (classification and statistics of the grade of pesticide damage; number of plants) / Grade 1 (classification and statistics of the grade of pesticide damage; number of plants) / Grade 2 (classification and statistics of the grade of pesticide damage; number of plants) / Grade 3 (classification and statistics of the grade of pesticide damage; number of plants): 16 plants
Method in brief: (§1)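 Read-out: per-plant damage grade 0–3 from proportion of bleached leaf area at 7 DAT (1 <50%, 2 >50%, 3 100%). Plants were T1 transformants, glufosinate-selected, plus wild-type CK, sprayed 18 days post-sowing. Rates: topramezone 25–200, isoxaflutole 35–280, mesotrione 52.5–420 g ai/ha.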

[2] = system: Arabidopsis thaliana T1 plants; experiment: Isoxaflutole tolerance of transgenic Arabidopsis thaliana T1 plants (spray, bleached leaf area grade, damage score); set-up: Scores (pesticide damage): scale not given here; conditions: spray, Arabidopsis thaliana T1 plants; for Classification and statistics of the grade of pesticide damage: Grade 0 (number of plants) / Classification and statistics of the grade of pesticide damage: Grade 1 (number of plants) / Classification and statistics of the grade of pesticide damage: Grade 2 (number of plants) / Classification and statistics of the grade of pesticide damage: Grade 3 (number of plants): 16 plants
Method in brief: as §1

soybean T1 plants [3] = experiment: Isoxaflutole tolerance of transgenic soybean T1 plants; conditions: different concentrations
soybean T1 plants [4] = experiment: Mesotrione tolerance of transgenic soybean T1 plants; conditions: different concentrations
soybean T1 plants [5] = experiment: Topramezone tolerance of transgenic soybean T1 plants; conditions: different concentrations
Protocol: T1 transformants were initially selected from the untransformed seeds using a glufosinate selection scheme. […] The degree of damage caused by the herbicide was measured for each plant according to the proportion of bleached leaf area (the proportion of bleached leaf area=bleached leaf area/total leaf area×100%) 7 days after spraying (7 DAT): the case where there is basically no bleached phenotype is defined as grade 0, the case where the proportion of bleached leaf area is less than 50% is defined as grade 1, the case where the proportion of bleached leaf area is more than 50% is defined as grade 2, and the case where the proportion of bleached leaf area is 100% grade is defined as grade 3.
The soybean T1 plants into which the SbHPPD-02 nucleotide sequence was introduced, soybean T1 plants into which the SbHPPDm-F372A-02 nucleotide sequence was introduced, soybean T1 plants into which the SbHPPDm-F383W-02 nucleotide sequence was introduced, soybean T1 plants into which the SbHPPDm-F372A-F383W-02 nucleotide sequence was introduced, soybean T1 plants into which the control vector DBN11726N nucleotide sequence was introduced, and wild-type soybean plants (V3-V4 at seedling stage) were sprayed with topramezone at three different concentrations (i.e., 25 g ai/ha (one-fold field concentration, 1×). […] According to the method in point 6 of Example 1, after 7 days of spraying (7 DAT), the damage degree of each plant by the herbicide was statistically analyzed, and the scoring and resistance evaluation were carried out accordingly. […]

[6] = system: Arabidopsis thaliana T1 plants; experiment: Topramezone tolerance of transgenic Arabidopsis thaliana T1 plants (spray, bleached leaf area grade, damage score); conditions: 7 DAT, Table 4; for Classification and statistics of the grade of pesticide damage: Grade 0 / Classification and statistics of the grade of pesticide damage: Grade 1 / Classification and statistics of the grade of pesticide damage: Grade 2 / Classification and statistics of the grade of pesticide damage: Grade 3: number of plants; for Scores: pesticide damage score 0-100
Method in brief: as §1

[7] = isoxaflutole 35 g ai/ha (0.5x field concentration)
[8] = isoxaflutole 70 g ai/ha (1x field concentration)

B1: SbHPPDm-F372A-02: nucleotide sequence encoding Sorghum bicolor HPPD with F372A; vector DBN11759 (nucleic acid)
DNA: ATGCCGCCCACTCCAACAACTGCTGCTGCGACGGGAGCAGCTGTCGCCGCTGCTTCTGCTGAGCAGGCTGCCTTCAGGCTCGTCGGGCACAGAAATTTTGTTCGTGTAAATCCAAGGAGTGATAGGTTCCACACCTTGGCTTTTCACCACGTGGAGTTGTGGTGTGCTGATGCAGCCTCGGCAGCGGGGCGCTTCTCGTTTGGTCTCGGTGCTCCGCTCGCCGCAAGATCTGATCTTAGCACTGGAAACACAGCGCATGCCTCCCTGCTCCTGCGCTCTGGCGCGCTGGCGTTCCTCTTCACGGCGCCATATGCTCACGGCGCCGACGCCGCCACCGCGTCATTGCCGTCTTTTAGTGCAGCCGAAGCAAGAAGATTTGCAGCAGACCACGGCCTCGCCGTAAGGGCCGTGGCCTTACGTGTCGCCGATGCCGAAGATGCTTTCCGCGCCTCTGTAGCAGCTGGAGCAAGGCCAGCATTTGAACCTGTTGAATTGGGGTTAGGATTCCGTCTTGCAGAAGTTGAGCTTTATGGCGACGTTGTTTTGAGATACGTTTCATATCCTGATGACGCTGACGCTAGCTTCTTGCCTGGTTTTGTGGGGGTGACATCACCTGGGGCAGCAGATTATGGTCTCAGGCGGTTTGATCATATTGTTGGAAACGTTCCTGAACTCGCGCCGGCGGCAGCCTACTTCGCCGGTTTCACTGGGTTTCATGAATTTGCTGAATTCACAGCCGAGGATGTCGGCACCACCGAGAGTGGACTGAACTCCATGGTGCTGGCCAACAATGCAGAGAATGTCCTTCTTCCCTTGAATGAACCAGTTCATGGAACAAAAAGGCGTTCCCAAATACAAACATACCTCGACCATCATGGTGGACCAGGCGTTCAGCATATGGCTCTCGCTAGTGACGATGTTCTACGAACCCTGCGAGAGATGCAGGCGCGGTCTGCAATGGGAGGATTTGAGTTCATGGCACCTCCTGCCCCTGAATATTATGATGGTGTTCGGAGAAGGGCAGGTGATGTGCTAACTGAAGCTCAAATCAAGGAGTGCCAGGAGCTTGGCGTGCTGGTCGATCGGGATGATCAAGGTGTGCTTCTGCAGATTGCCACTAAACCAGTGGGTGACCGCCCCACGCTGTTCCTAGAGATCATCCAGAGAATAGGGTGCATGGAGAAGGACGAAAAAGGACAAGAGTACCAGAAGGGAGGTTGTGGCGGCTTTGGAAAAGGGAACTTCTCCCAATTATTCAAGTCAATTGAAGACTATGAAAAGAGTTTGGAGGCTAAGCAAGCTGCAGCCGCCCAGGGCAGCTGA
modifications: SbHPPDm-F372A-02 Nucleotide Sequence
notes: vector DBN11759
Resistance evaluation ([1]; mesotrione 52.5 g ai/ha): Poorly resistant | Scores ([1]; mesotrione 52.5 g ai/ha): 60 | Grade 0 (classification and statistics of the grade of pesticide damage; number of plants) ([1]; mesotrione 52.5 g ai/ha): 0 | Grade 1 (classification and statistics of the grade of pesticide damage; number of plants) ([1]; mesotrione 52.5 g ai/ha): 6 | Grade 2 (classification and statistics of the grade of pesticide damage; number of plants) ([1]; mesotrione 52.5 g ai/ha): 7 | Grade 3 (classification and statistics of the grade of pesticide damage; number of plants) ([1]; mesotrione 52.5 g ai/ha): 3 | Resistance evaluation ([1]; mesotrione 105 g ai/ha): Non-resistant | Scores ([1]; mesotrione 105 g ai/ha): 100 | Grade 0 (classification and statistics of the grade of pesticide damage; number of plants) ([1]; mesotrione 105 g ai/ha): 0 | Grade 1 (classification and statistics of the grade of pesticide damage; number of plants) ([1]; mesotrione 105 g ai/ha): 0 | Grade 2 (classification and statistics of the grade of pesticide damage; number of plants) ([1]; mesotrione 105 g ai/ha): 0 | Grade 3 (classification and statistics of the grade of pesticide damage; number of plants) ([1]; mesotrione 105 g ai/ha): 16 | Resistance evaluation [2, 7]: Poorly | Scores (pesticide damage) [2, 7]: 67 | Classification and statistics of the grade of pesticide damage: Grade 0 (number of plants) [2, 7]: 0 | Classification and statistics of the grade of pesticide damage: Grade 1 (number of plants) [2, 7]: 2 | Classification and statistics of the grade of pesticide damage: Grade 2 (number of plants) [2, 7]: 12 | Classification and statistics of the grade of pesticide damage: Grade 3 (number of plants) [2, 7]: 2 | Resistance evaluation [2, 8]: Non-resistant | Scores (pesticide damage) [2, 8]: 100 | Classification and statistics of the grade of pesticide damage: Grade 0 (number of plants) [2, 8]: 0 | Classification and statistics of the grade of pesticide damage: Grade 1 (number of plants) [2, 8]: 0 | Classification and statistics of the grade of pesticide damage: Grade 2 (number of plants) [2, 8]: 0 | Classification and statistics of the grade of pesticide damage: Grade 3 (number of plants) [2, 8]: 16 | tolerance to HPPD-inhibitor herbicides (in words): isoxaflutole (soybean T1 plants [3]): different degrees of tolerance | tolerance to HPPD-inhibitor herbicides (in words): mesotrione (soybean T1 plants [4]): different degrees of tolerance | tolerance to HPPD-inhibitor herbicides (in words): topramezone (soybean T1 plants [5]): different degrees of tolerance | Classification and statistics of the grade of pesticide damage: Grade 0 ([6]; topramezone 25 g ai/ha (1×)): 16 | Classification and statistics of the grade of pesticide damage: Grade 1 ([6]; topramezone 25 g ai/ha (1×)): 0 | Classification and statistics of the grade of pesticide damage: Grade 2 ([6]; topramezone 25 g ai/ha (1×)): 0 | Classification and statistics of the grade of pesticide damage: Grade 3 ([6]; topramezone 25 g ai/ha (1×)): 0 | Classification and statistics of the grade of pesticide damage: Grade 0 ([6]; topramezone 100 g ai/ha (4×)): 4 | Classification and statistics of the grade of pesticide damage: Grade 1 ([6]; topramezone 100 g ai/ha (4×)): 4 | Classification and statistics of the grade of pesticide damage: Grade 2 ([6]; topramezone 100 g ai/ha (4×)): 8 | Classification and statistics of the grade of pesticide damage: Grade 3 ([6]; topramezone 100 g ai/ha (4×)): 0 | Scores ([6]; topramezone 25 g ai/ha (1×)): 0 | Scores ([6]; topramezone 100 g ai/ha (4×)): 42 | Resistance evaluation ([6]; topramezone 25 g ai/ha (1×)): highly | Resistance evaluation ([6]; topramezone 100 g ai/ha (4×)): poorly
